Test system: HEK293FT cells transfected with TF library
Experiment: Screening of TF condensates based on fluorescent puncta
Assay type: cell-based
Settings: Figure 1B numerical data; TF library screen, one value per transcriptional factor
Summary of the method: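 HEK293FT cells were reverse-transfected with Flag- or GAL4-tagged TF plasmids (1.6 μg/ml, PEI). After 60 h, cells were cultured 12 h with or without glucose, then fixed and immunostained with anti-Flag or anti-GAL4 and Alexa 488 secondaries. Fluorescent puncta were imaged over fifty random fields per well by high-content imaging.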

Row | Molecule | Z score of condensed fraction
1 | HMX2 (protein, UniProt A2RU54 1-273, looked up) Homeobox protein HMX2: MGSKEDAGKGCPAAGGVSSFTIQSILGGGPSEAPREPVGWPARKRSLSVSSEEEEPDDGWKAPACFCPDQHGPKEQGPKHHPPIPFPCLGTPKGSGGSGPGGLERTPFLSPSHSDFKEEKERLLPAGSPSPGSERPRDGGAERQAGAAKKKTRTVFSRSQVYQLESTFDMKRYLSSSERACLASSLQLTETQVKTWFQNRRNKWKRQLSAELEAANMAHASAQTLVSMPLVFRDSSLLRVPVPRSLAFPAPLYYPGSNLSALPLYNLYNKLDY | 0.8931
2 | HMBOX1 (protein, UniProt Q6NT76 1-420, looked up) Homeobox-containing protein 1: MLSSFPVVLLETMSHYTDEPRFTIEQIDLLQRLRRTGMTKHEILHALETLDRLDQEHSDKFGRRSSYGGSSYGNSTNNVPASSSTATASTQTQHSGMSPSPSNSYDTSPQPCTTNQNGRENNERLSTSNGKMSPTRYHANSMGQRSYSFEASEEDLDVDDKVEELMRRDSSVIKEEIKAFLANRRISQAVVAQVTGISQSRISHWLLQQGSDLSEQKKRAFYRWYQLEKTNPGATLSMRPAPIPIEDPEWRQTPPPVSATSGTFRLRRGSRFTWRKECLAVMESYFNENQYPDEAKREEIANACNAVIQKPGKKLSDLERVTSLKVYNWFANRRKEIKRRANIEAAILESHGIDVQSPGGHSNSDDVDGNDYSEQDDSTSHSDHQDPISLAVEMAAVNHTILALARQGANEIKTEALDDD | -0.9564
3 | ARID3C (protein, UniProt A6NKF2 1-412, looked up) AT-rich interactive …: MEALQKQQAARLAQGVGPLAPACPLLPPQPPLPDHRTLQAPEGALGNVGAEEEEDAEEDEEKREEAGAEEEAAEESRPGAQGPSSPSSQPPGLHPHEWTYEEQFKQLYELDADPKRKEFLDDLFSFMQKRGTPVNRVPIMAKQVLDLYALFRLVTAKGGLVEVINRKVWREVTRGLSLPTTITSAAFTLRTQYMKYLYPYECETRALSSPGELQAAIDSNRREGRRQAYTATPLFGLAGPPPRGAQDPALGPGPAPPATQSSPGPAQGSTSGLPAHACAQLSPSPIKKEESGIPNPCLALPVGLALGPTREKLAPEEPPEKRAVLMGPMDPPRPCMPPSFLPRGKVPLREERLDGPLNLAGSGISSINMALEINGVVYTGVLFARRQPVPASQGPTNPAPPPSTGPPSSILP | 0.4617
4 | ARID4A (protein, UniProt P29374 1-1257, looked up) AT-rich interactive …: MKAADEPAYLTVGTDVSAKYRGAFCEAKIKTVKRLVKVKVLLKQDNTTQLVQDDQVKGPLRVGAIVETRTSDGSFQEAIISKLTDASWYTVVFDDGDERTLRRTSLCLKGERHFAESETLDQLPLTNPEHFGTPVIAKKTNRGRRSSLPVTEDEKEEESSEEEDEDKRRLNDELLGKVVSVVSATERTEWYPALVISPSCNDDITVKKDQCLVRSFIDSKFYSIARKDIKEVDILNLPESELSTKPGLQKASIFLKTRVVPDNWKMDISEILESSSSDDEDGPAEENDEEKEKEAKKTEEEVPEEELDPEERDNFLQQLYKFMEDRGTPINKPPVLGYKDLNLFKLFRLVYHQGGCDNIDSGAVWKQIYMDLGIPILNSAASYNVKTAYRKYLYGFEEYCRSANIQFRTVHHHEPKVKEEKKDLEESMEEALKLDQEMPLTEVKSEPEENIDSNSESEREEIELKSPRGRRRIARDVNSIKKEIEEEKTEDKLKDNDTENKDVDDDYETAEKKENELLLGRKNTPKQKEKKIKKQEDSDKDSDEEEEKSQEREETESKCDSEGEEDEEDMEPCLTGTKVKVKYGRGKTQKIYEASIKSTEIDDGEVLYLVHYYGWNVRYDEWVKADRIIWPLDKGGPKKKQKKKAKNKEDSEKDEKRDEERQKSKRGRPPLKSTLSSNMPYGLSKTANSEGKSDSCSSDSETEDALEKNLINEELSLKDELEKNENLNDDKLDEENPKISAHILKENDRTQMQPLETLKLEVGENEQIVQIFGNKMEKTEEVKKEAEKSPKGKGRRSKTKDLSLEIIKISSFGQNEAGSEPHIEAHSLELSSLDNKNFSSATEDEIDQCVKEKKLKRKILGQSSPEKKIRIENGMEMTNTVSQERTSDCIGSEGMKNLNFEQHFERENEGMPSLIAESNQCIQQLTSERFDSPAEETVNIPLKEDEDAMPLIGPETLVCHEVDLDDLDEKDKTSIEDVAVESSESNSLVSIPPALPPVVQHNFSVASPLTLSQDESRSVKSESDITIEVDSIAEESQEGLCERESANGFETNVASGTCSIIVQERESREKGQKRPSDGNSGLMAKKQKRTPKRTSAAAKNEKNGTGQSSDSEDLPVLDNSSKCTPVKHLNVSKPQKLARSPARISPHIKDGEKDKHREKHPNSSPRTYKWSFQLNELDNMNSTERISFLQEKLQEIRKYYMSLKSEVATIDRRRKRLKKKDREVSHAGASMSSASSDTGMSPSSSSPPQNVLAVECR | 0.8979
5 | HOXC13 (protein, UniProt P31276 1-330, looked up) Homeobox protein Hox-C13: MTTSLLLHPRWPESLMYVYEDSAAESGIGGGGGGGGGGTGGAGGGCSGASPGKAPSMDGLGSSCPASHCRDLLPHPVLGRPPAPLGAPQGAVYTDIPAPEAARQCAPPPAPPTSSSATLGYGYPFGGSYYGCRLSHNVNLQQKPCAYHPGDKYPEPSGALPGDDLSSRAKEFAFYPSFASSYQAMPGYLDVSVVPGISGHPEPRHDALIPVEGYQHWALSNGWDSQVYCSKEQSQSAHLWKSPFPDVVPLQPEVSSYRRGRKKRVPYTKVQLKELEKEYAASKFITKEKRRRISATTNLSERQVTIWFQNRRVKEKKVVSKSKAPHLHST | -0.9976
6 | ARID5B (protein, UniProt Q14865 1-1188, looked up) AT-rich interactive …: MEPNSLQWVGSPCGLHGPYIFYKAFQFHLEGKPRILSLGDFFFVRCTPKDPICIAELQLLWEERTSRQLLSSSKLYFLPEDTPQGRNSDHGEDEVIAVSEKVIVKLEDLVKWVHSDFSKWRCGFHAGPVKTEALGRNGQKEALLKYRQSTLNSGLNFKDVLKEKADLGEDEEETNVIVLSYPQYCRYRSMLKRIQDKPSSILTDQFALALGGIAVVSRNPQILYCRDTFDHPTLIENESICDEFAPNLKGRPRKKKPCPQRRDSFSGVKDSNNNSDGKAVAKVKCEARSALTKPKNNHNCKKVSNEEKPKVAIGEECRADEQAFLVALYKYMKERKTPIERIPYLGFKQINLWTMFQAAQKLGGYETITARRQWKHIYDELGGNPGSTSAATCTRRHYERLILPYERFIKGEEDKPLPPIKPRKQENSSQENENKTKVSGTKRIKHEIPKSKKEKENAPKPQDAAEVSSEQEKEQETLISQKSIPEPLPAADMKKKIEGYQEFSAKPLASRVDPEKDNETDQGSNSEKVAEEAGEKGPTPPLPSAPLAPEKDSALVPGASKQPLTSPSALVDSKQESKLCCFTESPESEPQEASFPSFPTTQPPLANQNETEDDKLPAMADYIANCTVKVDQLGSDDIHNALKQTPKVLVVQSFDMFKDKDLTGPMNENHGLNYTPLLYSRGNPGIMSPLAKKKLLSQVSGASLSSSYPYGSPPPLISKKKLIARDDLCSSLSQTHHGQSTDHMAVSRPSVIQHVQSFRSKPSEERKTINDIFKHEKLSRSDPHRCSFSKHHLNPLADSYVLKQEIQEGKDKLLEKRALPHSHMPSFLADFYSSPHLHSLYRHTEHHLHNEQTSKYPSRDMYRESENSSFPSHRHQEKLHVNYLTSLHLQDKKSAAAEAPTDDQPTDLSLPKNPHKPTGKVLGLAHSTTGPQESKGISQFQVLGSQSRDCHPKACRVSPMTMSGPKKYPESLSRSGKPHHVRLENFRKMEGMVHPILHRKMSPQNIGAARPIKRSLEDLDLVIAGKKARAVSPLDPSKEVSGKEKASEQESEGSKAAHGGHSGGGSEGHKLPLSSPIFPGLYSGSLCNSGLNSRLPAGYSHSLQYLKNQTVLSPLMQPLAFHSLVMQRGIFTSPTNSQQLYRHLAAATPVGSSYGDLLHNSIYPLAAINPQAAFPSSQLSSVHPSTKL | -1.099
7 | HMG20B (protein, UniProt Q9P0W2 1-317, looked up) SWI/SNF-related …: MSHGPKQPGAAAAPAGGKAPGQHGGFVVTVKQERGEGPRAGEKGSHEEEPVKKRGWPKGKKRKKILPNGPKAPVTGYVRFLNERREQIRTRHPDLPFPEITKMLGAEWSKLQPTEKQRYLDEAEREKQQYMKELRAYQQSEAYKMCTEKIQEKKIKKEDSSSGLMNTLLNGHKGGDCDGFSTFDVPIFTEEFLDQNKAREAELRRLRKMNVAFEEQNAVLQRHTQSMSSARERLEQELALEERRTLALQQQLQAVRQALTASFASLPVPGTGETPTLGTLDFYMARLHGAIERDPAQHEKLIVRIKEILAQVASEHL | -0.2795
8 | HNF4G (protein, UniProt Q14541 1-408, looked up) Hepatocyte nuclear factor …: MNTTDNGVNCLCAICGDRATGKHYGASSCDGCKGFFRRSIRKSHVYSCRFSRQCVVDKDKRNQCRYCRLRKCFRAGMKKEAVQNERDRISTRRSTFDGSNIPSINTLAQAEVRSRQISVSSPGSSTDINVKKIASIGDVCESMKQQLLVLVEWAKYIPAFCELPLDDQVALLRAHAGEHLLLGATKRSMMYKDILLLGNNYVIHRNSCEVEISRVANRVLDELVRPFQEIQIDDNEYACLKAIVFFDPDAKGLSDPVKIKNMRFQVQIGLEDYINDRQYDSRGRFGELLLLLPTLQSITWQMIEQIQFVKLFGMVKIDNLLQEMLLGGASNDGSHLHHPMHPHLSQDPLTGQTILLGPMSTLVHADQISTPETPLPSPPQGSGQEQYKIAANQASVISHQHLSKQKQL | 0.7637
9 | HMG1 (protein, UniProt P09429 1-215, looked up) High mobility group protein B1: MGKGDPKKPRGKMSSYAFFVQTCREEHKKKHPDASVNFSEFSKKCSERWKTMSAKEKGKFEDMAKADKARYEREMKTYIPPKGETKKKFKDPNAPKRPPSAFFLFCSEYRPKIKGEHPGLSIGDVAKKLGEMWNNTAADDKQPYEKKAAKLKEKYEKDIAAYRAKGKPDAAKKGVVKAEKSKKKKEEEEDEEDEEDEEEEEDEEDEDEEEDDDDE | 1.213
10 | HMG20A (protein, UniProt Q9NP66 1-347, looked up) High mobility group protein …: MENLMTSSTLPPLFADEDGSKESNDLATTGLNHPEVPYSSGATSSTNNPEFVEDLSQGQLLQSESSNAAEGNEQRHEDEQRSKRGGWSKGRKRKKPLRDSNAPKSPLTGYVRFMNERREQLRAKRPEVPFPEITRMLGNEWSKLPPEEKQRYLDEADRDKERYMKELEQYQKTEAYKVFSRKTQDRQKGKSHRQDAARQATHDHEKETEVKERSVFDIPIFTEEFLNHSKAREAELRQLRKSNMEFEERNAALQKHVESMRTAVEKLEVDVIQERSRNTVLQQHLETLRQVLTSSFASMPLPGSGETPTVDTIDSYMNRLHSIILANPQDNENFIATVREVVNRLDR | -0.5061
11 | HSBP1 (protein, UniProt O75506 1-76, looked up) Heat shock factor-binding …: MAETDPKTVQDLTSVVQTLLQQMQDKFQTMSDQIIGRIDDMSSRIDDLEKNIADLMTQAGVEELESENKIPATQKS | -0.06777
